Experimental data as given in paper PMC8548206, “Single-domain antibody screening by isPLA-seq” (Life Science Alliance, 2021).

B1: Flag-tagged anti-SQSTM1 sdAb clone #1 (VHH)
VHH: QVQLVESGGGSVQAGGSLRLSCTASGGSEYSYSTFSLGWFRQAPGQEREAVAAIASMGGLTYYADSVKGRFTISRDNAKNTVTLQMNNLKPEDTAIYYCAAEGLVYWTTKKSFGGCLLHDWSWGQGTQVTVSS
notes: 21-aa CDR3 in place of the CDR3 of cAbBCII10; also called anti-SQSTM1 clone #1; sdAb #1; source: HEK293T, transfected (sdAb library in pcDNA3.1), in fixed cells; not shown: 3x Flag, C-terminal, kept
B2: purified anti-SQSTM1 sdAb clone #2 (VHH)
VHH: QVQLVESGGGSVQAGGSLRLSCTASGGSEYSYSTFSLGWFRQAPGQEREAVAAIASMGGLTYYADSVKGRFTISRDNAKNTVTLQMNNLKPEDTAIYYCAARAGVCGVVGSFSMYTIGNWVYWGQGTQVTVSS
B3: purified anti-SQSTM1 sdAb clone #1, C-terminal ETA-fused and Flag-tagged (VHH)
VHH: B1 VHH
notes: also called anti-SQSTM1 sdAb #1; ETA-tagged anti-SQSTM1 sdAb
B4: anti-SQSTM1 sdAb #9 (Flag-tagged, sdAb library) (VHH)
VHH: QVQLVESGGGSVQAGGSLRLSCTASGGSEYSYSTFSLGWFRQAPGQEREAVAAIASMGGLTYYADSVKGRFTISRDNAKNTVTLQMNNLKPEDTAIYYCAADRGCHSTLGSRISFFKGCIIGWGQGTQVTVSS
notes: 21-aa CDR3 in place of the CDR3 of cAbBCII10; source: HEK293T, transfected (sdAb library in pcDNA3.1), in fixed cells; not shown: 3x Flag, C-terminal, kept
B5: anti-SQSTM1 sdAb #22 (Flag-tagged, sdAb library) (VHH)
VHH: QVQLVESGGGSVQAGGSLRLSCTASGGSEYSYSTFSLGWFRQAPGQEREAVAAIASMGGLTYYADSVKGRFTISRDNAKNTVTLQMNNLKPEDTAIYYCAAACELDAVRLWPDFVRPAVFSIWGQGTQVTVSS
notes: as for B4
B6: anti-SQSTM1 sdAb #6 (Flag-tagged, sdAb library) (VHH)
VHH: QVQLVESGGGSVQAGGSLRLSCTASGGSEYSYSTFSLGWFRQAPGQEREAVAAIASMGGLTYYADSVKGRFTISRDNAKNTVTLQMNNLKPEDTAIYYCAALLVIDSSVIARLDGRGRSDRLWGQGTQVTVSS
notes: as for B4
B7: anti-SQSTM1 sdAb #21 (Flag-tagged, sdAb library) (VHH)
VHH: QVQLVESGGGSVQAGGSLRLSCTASGGSEYSYSTFSLGWFRQAPGQEREAVAAIASMGGLTYYADSVKGRFTISRDNAKNTVTLQMNNLKPEDTAIYYCAADLWAPLMVCSGGLTQMLSNSDWGQGTQVTVSS
notes: as for B4
B8: anti-SQSTM1 sdAb #24 (Flag-tagged, sdAb library) (VHH)
VHH: QVQLVESGGGSVQAGGSLRLSCTASGGSEYSYSTFSLGWFRQAPGQEREAVAAIASMGGLTYYADSVKGRFTISRDNAKNTVTLQMNNLKPEDTAIYYCAAVRTPVILRCFQSGIFYLVGEVWGQGTQVTVSS
notes: as for B4
B9: anti-SQSTM1 sdAb #26 (Flag-tagged, sdAb library) (VHH)
VHH: QVQLVESGGGSVQAGGSLRLSCTASGGSEYSYSTFSLGWFRQAPGQEREAVAAIASMGGLTYYADSVKGRFTISRDNAKNTVTLQMNNLKPEDTAIYYCAAFPSRLKCTRGCGCRTFNFPALWGQGTQVTVSS
notes: as for B4
B10: anti-SQSTM1 sdAb #23 (Flag-tagged, sdAb library) (VHH)
VHH: QVQLVESGGGSVQAGGSLRLSCTASGGSEYSYSTFSLGWFRQAPGQEREAVAAIASMGGLTYYADSVKGRFTISRDNAKNTVTLQMNNLKPEDTAIYYCAARRGFVRHTKIKLLDYALTEVRWGQGTQVTVSS
notes: as for B4
B11: anti-SQSTM1 sdAb #5 (Flag-tagged, sdAb library) (VHH)
VHH: QVQLVESGGGSVQAGGSLRLSCTASGGSEYSYSTFSLGWFRQAPGQEREAVAAIASMGGLTYYADSVKGRFTISRDNAKNTVTLQMNNLKPEDTAIYYCAAYDRVGGGHVLIACYSDDLCMGWGQGTQVTVSS
notes: as for B4
B12: anti-SQSTM1 sdAb #25 (Flag-tagged, sdAb library) (VHH)
VHH: QVQLVESGGGSVQAGGSLRLSCTASGGSEYSYSTFSLGWFRQAPGQEREAVAAIASMGGLTYYADSVKGRFTISRDNAKNTVTLQMNNLKPEDTAIYYCAAPGDGQEVIFAFVQRSTRAWPVWGQGTQVTVSS
notes: as for B4
B13: anti-SQSTM1 sdAb #27 (Flag-tagged, sdAb library) (VHH)
VHH: QVQLVESGGGSVQAGGSLRLSCTASGGSEYSYSTFSLGWFRQAPGQEREAVAAIASMGGLTYYADSVKGRFTISRDNAKNTVTLQMNNLKPEDTAIYYCAAIIAELCSGLPCTSFLRTPCPVWGQGTQVTVSS
notes: as for B4
B14: anti-SQSTM1 sdAb #4 (Flag-tagged, sdAb library) (VHH)
VHH: QVQLVESGGGSVQAGGSLRLSCTASGGSEYSYSTFSLGWFRQAPGQEREAVAAIASMGGLTYYADSVKGRFTISRDNAKNTVTLQMNNLKPEDTAIYYCAAAYGNDVQSVAFKYVVGRGYQLWGQGTQVTVSS
notes: as for B4
B15: anti-SQSTM1 sdAb #3 (Flag-tagged, sdAb library) (VHH)
VHH: QVQLVESGGGSVQAGGSLRLSCTASGGSEYSYSTFSLGWFRQAPGQEREAVAAIASMGGLTYYADSVKGRFTISRDNAKNTVTLQMNNLKPEDTAIYYCAARVRTSPRSAVADGSAYRSESAWGQGTQVTVSS
notes: as for B4
B16: anti-SQSTM1 sdAb #8 (Flag-tagged, sdAb library) (VHH)
VHH: QVQLVESGGGSVQAGGSLRLSCTASGGSEYSYSTFSLGWFRQAPGQEREAVAAIASMGGLTYYADSVKGRFTISRDNAKNTVTLQMNNLKPEDTAIYYCAAARVFMPCTPSHIIGAMCTLACWGQGTQVTVSS
notes: as for B4
B17: anti-SQSTM1 sdAb #7 (Flag-tagged, sdAb library) (VHH)
VHH: QVQLVESGGGSVQAGGSLRLSCTASGGSEYSYSTFSLGWFRQAPGQEREAVAAIASMGGLTYYADSVKGRFTISRDNAKNTVTLQMNNLKPEDTAIYYCAAAYIAKRPCCDCREVQWGSRTCWGQGTQVTVSS
notes: as for B4

These binders were tested against T1, HA-tagged SQSTM1 N-terminal region (1–220 aa) (Homo sapiens (Human)., UniProt Q13501) (assay: proximity ligation; single sdAb DNA transfected along with HA-tagged SQSTM1 or its truncations; isPLA with anti-HA and anti-Flag antibodies 48 h after transfection). Details: partners not purified.
T1 construct: SQSTM1, residues 1-220; also called N-terminal region of SQSTM1 (1–220 aa); source: transfected, in cells (isPLA)
B1: no binding.

What follows are binders tested against T2, HA-tagged SQSTM1 C-terminal region (221–440 aa) (Homo sapiens (Human)., UniProt Q13501) in the same assay as above. Details: partners not purified.
T2 construct: also called C-terminal SQSTM1; source: transfected, in cells (isPLA, co-IP)
B1: binds.

Each binder was assayed against T3, Sqstm1 (endogenous, LLC1 cells) (Mus musculus (Mouse)., UniProt Q64337) (assay: far-Western, overlay or dot blot). Details: one partner purified.
T3 construct: mouse Sqstm1, endogenous in Lewis lung carcinoma (LLC1) cells; also called denatured Sqstm1; source: endogenous, LLC1 cells (lysate for Western blot; fixed cells for staining)
B2: binds.

Each binder was assayed against GST-SQSTM1, 221–440 aa (Homo sapiens (Human)., UniProt Q13501) (assay: ITC). Details: both partners purified.
B3 was tested, and the Kd was 8.8 ± 1.39 µM.

The binders below were run against T4, HA-tagged SQSTM1 (Homo sapiens (Human)., UniProt Q13501) (assay: proximity ligation; pooled screen (isPLA-seq): Flag-tagged sdAb library co-transfected with HA-tagged SQSTM1 into HEK293T cells, fixed after 48 h, isPLA with anti-HA and anti-Flag antibodies, positive cells sorted by FACS, three rounds, CDR3 sequenced). Details: partners not purified.
T4 construct: autophagy receptor SQSTM1, full length; the printed limits 1-440 fit the human protein; also called HA-tagged bait; full length; source: HEK293T, transfected, in fixed cells (screen)
B4: binds. B5: binds. B6: binds. B7: binds. B8: binds. B9: binds. B10: binds. B11: binds. B12: binds. B13: binds. B1: binds. B14: binds. B15: binds. B16: binds. B17: binds.
